Reference: the RNAGym collection of RNA variant scans (doi:10.1073/pnas.2313332121)

B1: TPR t1 (parent)
chain: GACCAAUCUGCCCUCAGAGCUCGAGAACAUCUUCGGAUGCAGAGGAGGCAGGCUUCGGUGGCGCGAUAGCGCCAACGUCCUCAACCUCCAAUGCAUCCCACCACAUGAUGAUGCCUGAAGAGCCUUGGUUUUUUG

Variants of: B1
Test: polymerase ribozyme fitness, log enrichment relative to wild type (log ratio); higher = more active; in vitro selection for triplet polymerase activity
How it was run: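 Mutant libraries of each subunit of a heterodimeric triplet polymerase ribozyme were built by PCR and transcribed. Each library went through one round of in vitro selection in triplicate: annealing with biotinylated primer, partner subunit and triplets, frozen incubation at −7 °C, gel excision of extended constructs, streptavidin-bead capture and RT-PCR. Input and output libraries were Illumina-sequenced; only genotypes with ≥10 input reads and ≥1 read per output were kept. Fitness is log2(genotype enrichment/wild-type enrichment), using inverse-variance-weighted replicate averages.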

Variant	polymerase ribozyme fitness (log ratio)
GACCAAUCUGACCUCAGAGCUCGAGAACAUCUUCGGAUGCAGAGGAGGCAGGCGUCGGUGGCGCGAUAGCGCCAACGUCCACAACCUCCAAUGCAUCCCACCACAUGAUGAUGCCUGAAGAGCCUUGGUUUUUUG [C11A U54G U81A]	-2.11
GACCAAUCUGACCUCAGAGCUCGAGAACAUCUUCGGAUGCAGAGGAGGCAGGCUUCGGUGGCGCGACAGCGCCAACGUCCUCAACCUCCAAUGCAUCCCACCACAUGAUGAUGCCUGAAGAGCCUUGGUUUUUUG [C11A U67C]	-5.83
GACCAAUCUGACCUCAGAGCUCGAGAACAUCUUCGGAUGCAGAGGAGGCAGGCUUCGGUGGCGCGAUAGCGCCAACGACCUCAACCUCCAAUGCAUCCCACCACAUGAUGAUGCCUGAAAAGCCUUGGUUUUUUG [C11A U78A G120A]	1.31
GACCAAUCUGACCUCAGAGCUCGAGAACAUCUUCGGAUGCAGAGGAGGCAGGCUUCGGUGGCGCGAUAGCGCCAACGCCCUCAACCUCCAAUGCAUCCCACCACAUGAUGAUGCCUGAAGAGCCUUGGUUUUUUG [C11A U78C]	-0.895
GACCAAUCUGACCUCAGAGCUCGAGAACAUCUUCGGAUGCAGAGGAGGCAGGCUUCGGUGGCGCGAUAGCGCCAACGUCCUCAACCACCAAUGCAUCCCACCACAUGAUGAUGCCUGAAGAGCCUUGGUUUUUUG [C11A U87A]	-1.66
GACCAAUCUGACCUCAGAGCUCGAGAACAUCUUCGGAUGCAGAGGAGGCAGGCUUCGGUGGCGCGAUAGCGCCAACGUCCUCAACCUCCAAUGCAUCCCACCACAAGAUUAUGCCUGAAGAGCCUUGGUUUUUUG [C11A U106A G110U]	-1.4
GACCAAUCUGACCUCAGAGCUCGAGAACAUCUUCGGAUGCAGAGGAGGCAGGCUUCGGUGGCGCGAUAGCGCCAACGUCCUCAACCUCCAAUGCAUCCCACCACAUGAUGAUGCCAGAAGAGCCUUGGUUUUUUG [C11A U116A]	-4
GACCAAUCUGACCUCAGAGCUCGAGAACAUCUUCGGAUGCAGAGGAGGCAGGCUUCGGUGGCGCGAUAGCGCCAACGUCCUCAACCUCCAAUGCAUCCCACCACAUGAUGAUGCCUGAAGAGCCUUGGUUUUAUG [C11A U133A]	-2.64
GACCAAUCUGGCCUCAGAGCUCGAGAACAUCUUCGGAUGCAGAGGAGGCAGGCUUCGGUGGCGCGAUAGCGCCAACGUCCUCAACCUCCAAUGCAUCCCACCACAUGAUGAUGCCUGAAGAGCCUUGGUUUUUUG [C11G]	0.294
GACCAAUCUGGCCUCUGAGCUCGGGAACAUCUUCGGAUGCAGAGGACGCAGGCUUCGGUGGCGCGAUAGCGACAACGUCCUCAACCUCCAAUGCAUCCCACCACAUGAUGCUGCCUGAAGAGCCUUGGUUUUUUG [C11G A16U A24G G47C C72A A111C]	-7.64
GACCAAUCUGGCCUCUGAGCUCGAGAAGAUCUUCGGAUGCAGAGGAGGCAGGCUUCGGUGGCGCGAUAGCGCCAACGUCCUCAACCUCCAAUGCAUCCCACCACAUGAUGAUGCCUGAAGCGCCUUGGUUUUUUG [C11G A16U C28G A121C]	-0.982
GACCAAUCUGGCCUCAGCGCUCGAGAACAUCUUCGGAUGCAGAGGAGGCAGGCUUCGGUGGCGCGAUAGCGCCAACGUCCUCAACCUCCAAUGCAUCCCACCACAUGAUGAUGCCUGAAGAGCCUUGGUUUUUUG [C11G A18C]	-1.71
GACCAAUCUGGCCUCAGCGCUCGAGAACAUCUUCGGAUGCAGAGGAGGCAGGCUUCGGUGGCGCGAUAGCGCCAACGUCCUCAACCUCCAAUGCAUCCCACCACAUGAUGAUGCCUGAAGAGCCAUGGUUUUUUG [C11G A18C U125A]	-2.13
GACCAAUCUGGCCUCAGGGCUCGAGAACAUCUUCGGAUGCAGAGGAGGGAGGCUUUGGUGGCGCGAUAGCGCCAACGUCCUCAACCUCCAAUGCAUCCCACCACAUGAUGAUGCCUGAAGAGCCUUGGUUUUUUG [C11G A18G C49G C56U]	-3.38
GACCAAUCUGGCCUCAGGGCUCGAGAACAUCUUCGGAUGCAGAGGAGGCAGGCUUCGGUGGCGCGAUAGCGCCAACGUCCUCAACCUCUAAUGCAACCCACCACAUGAUGAUGCCUGAAGAGCCUUGGUUUUUUG [C11G A18G C89U U96A]	-4.23
GACCAAUCUGGCCUCAGGGCUCGAGAACAUCUUCGGAUGCAGAGGAGGCAGGCUUCGGUGGCGCGAUAGCGCCAACGUCCUCAACCUCCAAUGCAUUCCACCACAUGAUAAUGCCUGAAGAGCCUUGGUUUUUUG [C11G A18G C97U G110A]	-3.11
GACCAAUCUGGCCUCAGUGCUCGAGAACAUCUUCGGAUGCAGAAGAGGCAGGCUUCGGUGGCGCGAUAUCGCCAACGUCCUCAACCUCCAAUGCAUCCCACCACAUGAUGAUGCCUGAAGAGCCUUGGUUUUUUG [C11G A18U G44A G69U]	0.139
GACCAAUCUGGCCUCAGUGCUCGAGAACAUCUUCGGAUGCAGAGGAGUUAGGCUUCGGUGACGCGAUAGCGCCAACGUCCUCAACCUCCAAUGCAUCCCACCACAUGAUGAUGCCUGAAGAGCCUUGGUUUUUUG [C11G A18U G48U C49U G61A]	-3.32
GACCAAUCUGGCCUCAGAGCUCGAGAGCAUCUUCGGAUGCAGAGGAGGCAGGCUUCGGUGGCGCGAUAGCGCCAACGUCCUCAAACUCCAAUGCAUCCCACCACAUGAUGAUGCCUGAAGAGCCAUGGUUUUUUG [C11G A27G C85A U125A]	-2.01
GACCAAUCUGGCCUCAGAGCUCGAGAGCAUCUUCGGAUGCAGAGGAGGCAGGCUUCGGUGGCCCGAUAGCGCCAACGUCCUCAACCUCCAAUACAUCCCACCACAUGAUGAUGCCUGAAGAGCCUUGGUUUUUUG [C11G A27G G63C G93A]	-3.72
GACCAAUCUGGCCUCAGAGCUCGAGAUCAUCUUCGGAUGCAGAGGAGGAAGGCUUCGGUGGCGCGAUAGCGCCAACGUCCUCAUCCUCCAAUGCAUCCCACCACAUGAUGAUGACUGAAAAGCCAUGGUUUUUUG [C11G A27U C49A A84U C114A G120A U125A]	-5.59

Variant	polymerase ribozyme fitness (log ratio)
GACCAAUCUGGCCUCAGAGCUCGAGAACUUCUUCGGAUGCAGAGGGGGCAGGCUUCGGUGGCGCGAUAGCGACAACGUCCUCAACCUCCAAUGCAUCCCCCCACAUGAUGAUGCCUGAUGAGCCUUGGUUUUUUG [C11G A29U A46G C72A A100C A119U]	-3.42
GACCAAUCUGGCCUCAGAGCUCGAGAACAUCUUCGGCUGCAGAGGAGGCAGGCUUCGGUGGCGCGAUAGCGCCAACGUCCUCAACCUGCAAUGCAUCCCACCACAUGAUGAUGCCUGAAGAGCCUUGGUUUUUUG [C11G A37C C88G]	-1.94
GACCAAUCUGGCCUCAGAGCUCGAGAACAUCUUCGGCUGCAGAGGAGGCAGGCUUCGGUGUCGCGAUAGCGCCAACGUCCUCAACCUCCAAUGCAUCCCACCACAUGAUGAUGCCUGAAGAGCCUUGGUUUUUUG [C11G A37C G61U]	-0.241
GACCAAUCUGGCCUCAGAGCUCGAGAACAUCUUCGGUUGCUGAGGAGGCAGGCUUCGGUGGCGCGAUAGCGCCAACGUCCUCAACCUCCAAUGCCUCCCACCACACGAUGAUGCCUGAAGAGCAUUGGUUUUUUG [C11G A37U A41U A95C U106C C124A]	-1.05
GACCAAUCUGGCCUCAGAGCUCGAGAACAUCUUCGGUUGCAGAGGAGGCAGGCUUCGGUGGCGCGAUAACGCCAACGUCCUCCACCUCCAAUGCAUCCCACCACAUGAUGAUGCCUGAAGCGCCUUGGUUUUUUG [C11G A37U G69A A83C A121C]	-1.05
GACCAAUCUGGCCUCAGAGCUCGAGAACAUCUUCGGAUGCCGAGGAGGCAGGCUUCGGUGGCGCGAUAGCGCCAACGUCCUCAACCUCCAAUGCAUCCCACCACAUGAUGAUGCCUGAAGAGCCUUGGUUUUUUG [C11G A41C]	-0.501
GACCAAUCUGGCCUCAGAGCUCGAGAACAUCUUCGGAUGCCGAGGAGGCAGGCUUUGGUGGCGCGAUAGCGCCAACGUCCUCAACCUCCAAUACAUCCCACCACAUGAUGAUGCCUGAAGAGGCUUGGUUUUUUU [C11G A41C C56U G93A C123G G135U]	-3.49
GACCAAUCUGGCCUCAGAGCUCGAGAACAUCUUCGGAUGCCGAGGAGGCAGGCUUCGGUGGCGCGAUAGCGCCAACGUCCUCAACCACCAAUGCAUCCCACCACAUGAUGAUGCCUGAAGAACCUUGGUUUUUUG [C11G A41C U87A G122A]	-0.672
GACCAAUCUGGCCUCAGAGCUCGAGAACAUCUUCGGAUGCGGAGGAGGCAGGCUUCGGUGGCGCGAUAGCGCGAACGUCCUCAACCUCCAAUGCAUCCCACCACAUGAUGAUGCCUGAAGAGCCUUGGUUUUUUG [C11G A41G C73G]	-0.55
GACCAAUCUGGCCUCAGAGCUCGAGAACAUCUUCGGAUGCUGAGGACGCAGGCUUCGGAGGCGCGAUAGCGCCAACGUCCUCAACCUCCAAUGCAUCCCACCACAUGAUGAUGCCUGAAGAGCCUUGGUUUUUUG [C11G A41U G47C U59A]	-3.12
GACCAAUCUGGCCUCAGAGCUCGAGAACAUCUUCGGAUGCUGAGGAGGCAGGCUUCGGUGGCGCGAUAGCCCCAACGUCCUCAACCUCCGAUGCAUCCCACCACAUGAUUAUGCCUGAAGAGCCUUGGUUUUUUA [C11G A41U G71C A90G G110U G135A]	-5.24
GACCAAUCUGGCCUCAGAGCUCGAGAACAUCUUCGGAUGCAGGGGAGGCAGGCUUCGGAGGCGUGAUAGCGCCAACGUCCUCAACCUCCAAUGCAUCCCACCACAUGAUGAUGCCUGAAGAGCCUUGGUUUUUUG [C11G A43G U59A C64U]	-2.3
GACCAAUCUGGCCUCAGAGCUCGAGAACAUCUUCGGAUGCAGAGGAGGCCGGCUUCGGUGGCGCGAUAGCGCCAACGUCCUCAACCUCCAAGGCAUCCCACCACAUGAUGAUGACUGAAGACCCUUGGUUCUUUG [C11G A50C U92G C114A G122C U131C]	-3.35
GACCAAUCUGGCCUCAGAGCUCGAGAACAUCUUCGGAUGCAGAGGAGGCCGGCUUCGGUGGCGCGAUAGCGCCAACGUCCUCAACCUCCAAUGCAUCCCACCACAUGAUGAUGCCUGAAGAGCCAUGGUUUUUUG [C11G A50C U125A]	-0.245
GACCAAUCUGGCCUCAGAGCUCGAGAACAUCUUCGGAUGCAGAGGAGGCAGGCUUCGGUGGCGCGGUAGCGCCAACGUCCUCAACCUCCAAUGCAUCCCACCACAAGAUGAUGCCUGAAGAGCCUUGGUUUUUUG [C11G A66G U106A]	-0.837
GACCAAUCUGGCCUCAGAGCUCGAGAACAUCUUCGGAUGCAGAGGAGGCAGGCUUCGGUGGCGCGUUAGCGCCAACGUCCUCAACCUCCAAUGCAUCCCACCACAUGAUGAUGCCUGAAGAGCCUUGGUUUUUUG [C11G A66U]	-0.995
GACCAAUCUGGCCUCAGAGCUCGAGAACAUCUUCGGAUGCAGAGGAGGCAGGCUUCGGUGGCGCGAUAGCGCCAACGUCCUCUACCUCCAAUGCAUCCCACCACACGAUGAUGCCUGAAGAGCCUUGGUUUUUUG [C11G A83U U106C]	-0.637
GACCAAUCUGGCCUCAGAGCUCGAGAACAUCUUCGGAUGCAGAGGAGGCAGGCUUCGGUGGCGCGAUAGCGCCAACGUCCUCAACCUCCAAUGCAUCCCACCACAUGAUGAUGCCUGAAGCGCCUUGGUUUUUUG [C11G A121C]	1.5
GACCAAUCUGGCCUCAGAGCUCGAGAACAUCUUCGGAUGCAGAGGAGGCAGGCUUCGGUGGCGCGAUAGCGCCAACGUCCUCAACCUCCAAUGCAUCCCACCACAUGAUGAUGCCUGAAGGGCCUUGGUUUUUUG [C11G A121G]	1.78
GACCAAUCUGGACUCAGAGCUCGAGAACAUCUUCGGAUGUAGAGGAGGCAGGCUUCGGUGGCGCGAUAGCGCCAACGUCCUCAACCUCCAAUGCAUCCUACCACAUGAUGAUGCCUAAAGAGCGUUGGUUUUUUG [C11G C12A C40U C99U G117A C124G]	-6.76
GACCAAUCUGGACUCAGAGCUCGAGAACAUCUUCGGAUGCAGAGGAGGCAGGCUUCGGUGGCACGAUAGCGCCAACGUCCUCAACCUCCAAUGCAUCCCACCACAUGAUGAUGCCUGAAGAGCCUUGGUUUUUUG [C11G C12A G63A]	-0.541
